Experimental data published in patent US20260216326A1 (PROMETHEUS BIOSCIENCES, published 2026).
Numbering of substitutions follows the chain as printed. Each block holds one binder with its values, some of them ahead of it.

Biological target: T1, human TL1A (Fitzgerald #30R-AT070) (human, UniProt O95150 72-251, limits assumed)
T1 construct: Coated on the ELISA plate at 1 ug/mL; also called TNFSF15
T1 sequence (looked up): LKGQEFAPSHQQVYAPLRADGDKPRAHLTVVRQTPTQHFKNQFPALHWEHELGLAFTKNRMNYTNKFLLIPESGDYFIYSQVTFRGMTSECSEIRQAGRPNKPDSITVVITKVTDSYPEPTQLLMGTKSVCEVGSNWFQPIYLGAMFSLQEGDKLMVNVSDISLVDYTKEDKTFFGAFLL
Assay: ELISA titration, coated human TL1A, culture supernatant

Kd: 0.132 nM
B2: A91 (antibody, human IgG1, V domains shown)
VH: QVQLVQSGAEVKKPGASVKVSCKASGFDIQDTYMHWVRQAPGQGLEWMGRIEPASGHIKYDPKFQGRVTMTRDTSTSTAYMELSSLRSEDTAVYYCARSGGLPDWWGQGTTVTVSS
VL: EIVLTQSPGTLSLSPGERATLSCRASSSVSYMYWYQQKPGQAPRLLIYATSNLASGIPDRFSGSGSGTDFTLTISRLEPEDFAVYYCQQWEGNPRTFGGGTKLEIK
notes: human IgG1/kappa (pFuse vectors), culture supernatant

Kd: 0.141 nM
B3: A74 (antibody, human IgG1, V domains shown)
VH: B2 VH with M70I, R72T, A79V
VL: B2 VL with L45P, L46W
notes: as for B2

Kd: 0.096 nM
B7: A101 (antibody, human IgG1, V domains shown)
VH: B2 VH with R38K, A40R, E52D, I58T, G66V, V68A, M70I, R72T, M81L, W105V
VL: B2 VL with E91K
notes: as for B2

Kd: 0.128 nM
B8: A73 (antibody, human IgG1, V domains shown)
VH: B2 VH with R72T, A79V
VL: B2 VL with L45P, L46W
notes: as for B2

Kd: 0.095 nM
B9: A96 (antibody, human IgG1, V domains shown)
VH: B2 VH with V68A, A79V
VL: B2 VL with L45P, L46W
notes: as for B2

Kd: 0.14 nM
B10: A98 (antibody, human IgG1, V domains shown)
VH: B2 VH with G66V, V68A, A79V
VL: B2 VL
notes: as for B2

Kd: 0.107 nM
B11: A103 (antibody, human IgG1, V domains shown)
VH: B2 VH with R38K, A40R, M48I, E52D, I58T, G66V, M70I, M81L, W105V
VL: B2 VL with E91K
notes: as for B2

Kd: 0.121 nM
B15: A87 (antibody, human IgG1, V domains shown)
VH: B2 VH with A79V
VL: B2 VL with L77V
notes: as for B2

Kd: 0.117 nM
B16: A89 (antibody, human IgG1, V domains shown)
VH: B2 VH with A79V
VL: B2 VL with L13A
notes: as for B2

Kd: 0.121 nM
B17: A92 (antibody, human IgG1, V domains shown)
VH: B2 VH with A79V, M81L
VL: B2 VL
notes: as for B2

Kd: 0.107 nM
B18: A90 (antibody, human IgG1, V domains shown)
VH: B2 VH with A79V
VL: B2 VL with L11M
notes: as for B2

Kd: 0.13 nM
B19: A85 (antibody, human IgG1, V domains shown)
VH: B2 VH with A79V
VL: B2 VL with I57V
notes: as for B2

Kd: 0.117 nM
B24: A93 (antibody, human IgG1, V domains shown)
VH: B2 VH with M81L
VL: B2 VL
notes: as for B2

Kd: 0.084 nM
B26: A100 (antibody, human IgG1, V domains shown)
VH: B2 VH with A40R, M48I, E52D, I58T, G66V, V68A, M70I, R72T, M81L, W105V
VL: B2 VL with E91K
notes: as for B2

Kd: 0.071 nM
B28: A107 (antibody, human IgG1, V domains shown)
VH: QVQLVQSGAEVKKPGASVKVSCKASGFDIQDTYMHWVKQRPGQGLEWIGRIDPASGHTKYDPKFQVRATITTDTSTSTAYLELSSLRSEDTAVYYCARSGGLPDVWGQGTTVTVSS
VL: B2 VL
notes: as for B2

Kd: 0.259 nM
B31: A75 (antibody, human IgG1, V domains shown)
VH: B2 VH with V68A, M70I, R72T, A79V
VL: B2 VL with L45P, L46W
notes: as for B2

Kd: 0.081 nM
B32: A88 (antibody, human IgG1, V domains shown)
VH: B2 VH with A79V
VL: B2 VL with F70Y, L77V
notes: as for B2

Kd: 0.129 nM
B34: A86 (antibody, human IgG1, V domains shown)
VH: B2 VH with A79V
VL: B2 VL with F70Y
notes: as for B2

Kd: 0.108 nM
B35: A104 (antibody, human IgG1, V domains shown)
VH: B28 VH with K38R, R40A
VL: B2 VL with E91K
notes: as for B2

Kd: 0.071 nM
B37: A97 (antibody, human IgG1, V domains shown)
VH: B2 VH with G66V, A79V
VL: B2 VL
notes: as for B2

Kd: 0.104 nM
B39: A102 (antibody, human IgG1, V domains shown)
VH: B28 VH with A68V
VL: B2 VL with E91K
notes: as for B2

Kd: 0.102 nM
B42: A99 (antibody, human IgG1, V domains shown)
VH: B2 VH with G66V, M70I, A79V
VL: B2 VL
notes: as for B2

Kd: 0.11 nM
B43: A105 (antibody, human IgG1, V domains shown)
VH: B28 VH with A79V, L81M
VL: B2 VL with E91K
notes: as for B2

Kd: 0.105 nM
B44: A95 (antibody, human IgG1, V domains shown)
VH: B2 VH with V68A, M70I, R72T, A79V
VL: B2 VL with L45P, L46W
notes: as for B2

Kd: 0.081 nM
B45: A94 (antibody, human IgG1, V domains shown)
VH: B2 VH with G66V, V68A, M70I, A79V
VL: B2 VL
notes: as for B2

The remaining lines, values behind:

B1: A148 (antibody, human IgG1, V domains shown)
VH: B2 VH with G66V, A79V
VL: B2 VL with L45P
notes: as for B2
Kd: 0.046 nM

B4: A31 (antibody, human IgG1, V domains shown)
VH: B2 VH with A79V
VL: B2 VL with L45P, L46W
notes: as for B2
Kd: 0.092 nM

B5: A65 (antibody, human IgG1, V domains shown)
VH: B2 VH with V68A, A79V
VL: B2 VL
notes: as for B2
Kd: 0.097 nM

B6: A60 (antibody, human IgG1, V domains shown)
VH: B2 VH with E52D, A79V
VL: B2 VL
notes: as for B2
Kd: 0.168 nM

B12: A66 (antibody, human IgG1, V domains shown)
VH: B2 VH with M70I, A79V
VL: B2 VL
notes: as for B2
Kd: 0.15 nM

B13: A29 (antibody, human IgG1, V domains shown)
VH: B28 VH
VL: B2 VL with L45P, L46W
notes: as for B2
Kd: 0.065 nM

B14: A64 (antibody, human IgG1, V domains shown)
VH: B2 VH with G66V, A79V
VL: B2 VL
notes: as for B2
Kd: 0.09 nM

B20: A68 (antibody, human IgG1, V domains shown)
VH: B2 VH with G66V, M70I, A79V
VL: B2 VL
notes: as for B2
Kd: 0.074 nM

B21: A33 (antibody, V domains shown)
VH: B2 VH with Q1D, A79V
VL: B2 VL
Kd: 0.081 nM

B22: A61 (antibody, human IgG1, V domains shown)
VH: B2 VH with M48I, A79V
VL: B2 VL
notes: as for B2
Kd: 0.127 nM

B23: A69 (antibody, human IgG1, V domains shown)
VH: B2 VH with Q1E, A79V
VL: B2 VL
notes: as for B2
Kd: 0.136 nM

B25: A62 (antibody, human IgG1, V domains shown)
VH: B2 VH with M48I, E52D, A79V
VL: B2 VL
notes: as for B2
Kd: 0.15 nM

B27: A58 (antibody, human IgG1, V domains shown)
VH: B2 VH with R38K, A79V
VL: B2 VL
notes: as for B2
Kd: 0.112 nM

B29: A72 (antibody, human IgG1, V domains shown)
VH: B2 VH with V68A, M70I, R72T, A79V
VL: B2 VL
notes: as for B2
Kd: 0.159 nM

B30: A57 (antibody, human IgG1, V domains shown)
VH: B2 VH with A40R, A79V
VL: B2 VL
notes: as for B2
Kd: 0.191 nM

B33: A67 (antibody, human IgG1, V domains shown)
VH: B2 VH with G66V, V68A, A79V
VL: B2 VL
notes: as for B2
Kd: 0.089 nM

B36: A63 (antibody, human IgG1, V domains shown)
VH: B2 VH with I58V, A79V
VL: B2 VL
notes: as for B2
Kd: 0.132 nM

B38: A59 (antibody, human IgG1, V domains shown)
VH: B2 VH with R38K, A40R, A79V
VL: B2 VL
notes: as for B2
Kd: 0.136 nM

B40: A32 (antibody, V domains shown)
VH: B2 VH with Q1D, A79V
VL: B2 VL with L45P, L46W
Kd: 0.111 nM

B41: A71 (antibody, human IgG1, V domains shown)
VH: B2 VH with M70I, R72T, A79V
VL: B2 VL
notes: as for B2
Kd: 0.15 nM

B46: A70 (antibody, human IgG1, V domains shown)
VH: B2 VH with R72T, A79V
VL: B2 VL
notes: as for B2
Kd: 0.149 nM
